These results are taken from paper PMC5818740 (2018).

Ends that are not written are not given here.

The target of this assay is PICK PDZ-BAR construct. The experiment in a line: FP.
Chain of PICK PDZ-BAR construct (chain, as listed by the source): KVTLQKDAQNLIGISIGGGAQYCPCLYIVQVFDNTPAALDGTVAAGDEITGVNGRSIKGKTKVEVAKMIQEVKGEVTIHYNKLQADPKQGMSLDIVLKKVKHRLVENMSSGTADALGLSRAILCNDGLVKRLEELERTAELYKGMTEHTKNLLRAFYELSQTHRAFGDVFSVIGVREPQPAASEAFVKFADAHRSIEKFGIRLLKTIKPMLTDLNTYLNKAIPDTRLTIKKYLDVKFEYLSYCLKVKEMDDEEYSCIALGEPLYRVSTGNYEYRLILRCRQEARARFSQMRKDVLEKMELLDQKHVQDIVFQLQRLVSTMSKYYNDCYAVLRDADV

As a reminder, the IC50 is the concentration that gives 50% inhibition. A high value points to lower potency. In turn, VYGIESVKI-OH [GluR2 peptide (competitor in the fluorescence polarization assay)] registered a half-maximal inhibitory concentration (IC50) of 15.3 µM.
